Literature values as cited in article PMC3617488 (European journal of nuclear medicine and molecular imaging, 2011).

Columns and labels:
[1] = human

exendin-4: subcutaneously administered peptide drug used in the treatment of type 2 diabetes
Half-life of the parent peptide [1]: 9.57 h

AC3174: exendin-4 analog which contains a leucine for methionine substitution
Plasma half-life (comparison with exendin-4): shorter plasma half-life
